Assay results reported in article PMC3103430, “RecA Proteins from Deinococcus geothermalis and Deinococcus murrayi - Cloning, Purification and Biochemical Characterisation” (BMC Molecular Biology, 2011).

Experiments:
[1] = substrate: Nc1ncnc2c1ncn2[C@@H]1O[C@H](COP(=O)(O)OP(=O)(O)OP(=O)(O)O)[C@@H](O)[C@H]1O; assay: purified protein; type: biochemical, Deinococcus murrayi; conditions: ssDNA-dependent (80-nt oligonucleotide, 12.16 μM nucleotides), 11.56 mM MgCl2, 20 mM Tris-HCl pH 7.5, 37 °C, Hill fit, n 1.1
[2] = substrate: Nc1ncnc2c1ncn2[C@H]1C[C@H](O)[C@@H](COP(=O)(O)OP(=O)(O)OP(=O)(O)O)O1; assay: purified protein; type: biochemical, Deinococcus murrayi; conditions: ssDNA-dependent (80-nt oligonucleotide, 12.16 μM nucleotides), 11.56 mM MgCl2, 20 mM Tris-HCl pH 7.5, 37 °C, Hill fit, n 1.0

B1: DmuRecA (Deinococcus murrayi) (protein)
chain: MSKDNPKDFGTPSDSKERLKAIETAMTQIEKAFGKGSIMRLGAESKLDVQAVSTGSLSLDLALGVGGIPRGRITEIYGPESGGKTTLALSVIAQAQKAGGTCAFIDAEHALDPVYARSLGVNTDELLVSQPDNGEQRLEIMELLVRSGAIDVVVVDSVAALTPRAEIEGEMGDSLPGLQARLMSQALRKLTAILSKTGTAAIFINQVREKIGVMYGNPETTTGGRALKFYASVRLDVRKIGQPVKMGNDAVGNTVKVKTVKNKVAPPFKEVELTLMYGKGFDQLSDLVTLASDMDIIKKAGSFYSYGEDRLGQGKEKAIAYIAERPELEAEIRERVLSAIKEGRAGDVPGVASVPAVAE
notes: heterogeneous oligomers
B1 gave a Km [1] of 310 ± 9 µM, a kcat [1] of 0.13 ± 0.004 s⁻¹ and a kcat/Km [1] of 430 ± 18 M⁻¹ s⁻¹. The Km [2] was 280 ± 7 µM, the kcat [2] was 0.14 ± 0.004 s⁻¹ and the kcat/Km [2] was 500 ± 25 M⁻¹ s⁻¹.
